Results: patent publication US20160279196A1 (published 2016)

Columns and labels:
[1] = molecular target: T1, SSX-10 peptide on HLA-A*02:01 (human); assay: cytokine release
T1 peptide: KASEKILYV

[2] = molecular target: T2, SSX-9 peptide on HLA-A*02:01 (human); assay: cytokine release
T2 peptide: KSSEKIIYV

[3] = molecular target: T3, SSX-4 peptide on HLA-A*02:01 (human); assay: cytokine release
T3 peptide: KSSEKIVYV

[4] = molecular target: T4, SSX-7 peptide on HLA-A*02:01 (human); assay: cytokine release
T4 peptide: KSLEKISYV

[5] = molecular target: T5, SSX-1; SSX-8 peptide on HLA-A*02:01 (human); assay: cytokine release
T5 peptide: KYSEKISYV

[6] = molecular target: T6, SSX-6 peptide on HLA-A*02:01 (human); assay: cytokine release
T6 peptide: KFSEKISCV

[7] = molecular target: T7, SSX-3 peptide on HLA-A*02:01 (human); assay: cytokine release
T7 peptide: KVSEKIVYV

[8] = molecular target: T8, SSX-5 peptide on HLA-A*02:01 (human); assay: cytokine release
T8 peptide: KASEKIIYV

[9] = molecular target: T9, SSX-2 peptide on HLA-A*02:01 (human); assay: multimer staining
T9 peptide: KASEKIFYV

B1: SSX-2 TCR (TCR, V domains shown)
Valpha: AQKITQTQPGMFVQEKEAVTLDCTYDTSDPSYGLFWYKQPSSGEMIFLIYQGSYDQQNATEGRYSLNFQKARKSANLVISASQLGDSAMYFCAMTSGFGNEKLTFGTGTRLTIIP
Vbeta: DAMVIQNPRYQVTQFGKPVTLSCSQTLNHNVMYWYQQKSSQAPKLLFHYYDKDFNNEADTPDNFQSRRPNTSFCFLDIRSPGLGDAAMYLCATSRGQGGQPQHFGDGTRLSIL
B1: recognises [1]; recognises [2]; recognises [3]. B1: no recognition [4]; no recognition [5]; no recognition [6]. B1: recognises [7]; recognises [8]; recognises [9].
